According to publication PMC4164012:

Molecular target: T1, recombinant E. coli L-asparaginase II (E. coli K-12 (JM109)), P00805
T1 chain: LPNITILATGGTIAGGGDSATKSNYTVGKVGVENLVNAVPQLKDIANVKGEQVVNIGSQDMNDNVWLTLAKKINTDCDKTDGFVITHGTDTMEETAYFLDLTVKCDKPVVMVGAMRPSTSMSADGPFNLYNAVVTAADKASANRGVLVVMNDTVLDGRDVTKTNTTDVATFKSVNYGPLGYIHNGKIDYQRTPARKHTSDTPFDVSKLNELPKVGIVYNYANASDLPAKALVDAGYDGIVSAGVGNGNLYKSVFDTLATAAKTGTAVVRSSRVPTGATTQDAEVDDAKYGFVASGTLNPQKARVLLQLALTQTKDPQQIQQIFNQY
Assay: SEC; analytical HPLC gel filtration on Bio-Sep S-2000, 50 mM Tris-HCl, 10 mM NaCl, pH 7.5; 20 ul of 1.5 mg/ml injected, 1 ml/min; mass from calibration with marker proteins
Conditions: remark: other sources report otherwise

stoichiometry N: 4
B1: recombinant E. coli L-asparaginase II, P00805 23-348 (enzyme)
chain: LPNITILATGGTIAGGGDSATKSNYTVGKVGVENLVNAVPQLKDIANVKGEQVVNIGSQDMNDNVWLTLAKKINTDCDKTDGFVITHGTDTMEETAYFLDLTVKCDKPVVMVGAMRPSTSMSADGPFNLYNAVVTAADKASANRGVLVVMNDTVLDGRDVTKTNTTDVATFKSVNYGPLGYIHNGKIDYQRTPARKHTSDTPFDVSKLNELPKVGIVYNYANASDLPAKALVDAGYDGIVSAGVGNGNLYKSVFDTLATAAKTGTAVVRSSRVPTGATTQDAEVDDAKYGFVASGTLNPQKARVLLQLALTQTKDPQQIQQIFNQY
